pKd: −log10 of the molar value.
Assays:
[1] = target: recombinant AE.A244 Δ11 gp120 (HIV-1 AE.A244); test: SPR (BIAcore 3000), mAb captured by anti-human Ig Fc, gp120 in flow
[2] = target: Env on the surface of HIV-1 AE.CM235-infected cells (HIV-1 AE.CM235); test: cell-based or functional assay
[3] = target: HIV-1 B.JRFL gp120 Env (HIV-1 B.JRFL); test: blocking assay on JRFL gp120, competitor b12
[4] = target: HIV-1 AE.A244 gp120 envelope glycoprotein (HIV-1 AE.A244); test: blocking assay on A244 gp120, competitor sCD4
[5] = target: Env on the surface of HIV-1 AE.CM235-infected cells (HIV-1 AE.CM235); test: flow cytometry, Alexa Fluor 488-CH58 with CH90 F(ab), HIV-1-infected CD4+ T cells (FIG. 14B-E)
[6] = target: Env on the surface of HIV-1 AE.92TH023-infected primary CD4+ T cells (HIV-1 AE.92TH023); test: as above
[7] = target: Env on the surface of HIV-1 AE.92TH023-infected primary CD4+ T cells (HIV-1 AE.92TH023); test: flow cytometry, Alexa Fluor 488-CH58 with unconjugated mAb, 10 µg/ml each, AE.92TH023-infected CD4+ T cells
[8] = target: Env on the surface of HIV-1 AE.CM235-infected cells (HIV-1 AE.CM235); test: flow cytometry, Alexa Fluor 488-CH58 with unconjugated mAb, 10 µg/ml each, AE.CM235-infected CD4+ T cells
[9] = target: recombinant AE.A244 Δ11 gp120 (HIV-1 AE.A244); test: SPR synergy assay (BIAcore 4000), CH58 immobilized on CM5 chip, mAb-gp120 complex injected
[10] = target: HIV-1 B.JRFL gp120 Env (HIV-1 B.JRFL); test: blocking assay on JRFL gp120, competitor sCD4

Substance A32 (antibody) has a pKd [1] of 9.15, a koff [1] of 0.00015 s⁻¹ and a kon [1] of 223000 M⁻¹ s⁻¹. The ADCC EC (3 hr Luciferase ADCC) [2] was 0.003 µg/mL, the maximum % GzB activity (ADCC-CM235 assay) [2] was 16% and the % blocking of b12 binding [3] was 23%. It also gave a % blocking of sCD4 binding [4] of 29%.
A32 Fab showed an inhibition of the ADCC activity mediated by 19/20 non-V3 mAbs (ADCC-CM235 assay) [2] of 73 to 100%.
CH58 (antibody) gave a % enhancement of CH58 binding in the presence of CH90 F(ab) [5] of less than 10%, a % enhancement of CH58 binding in the presence of CH90 F(ab) [6] of less than 10% and a % increase in the frequency of cells recognized by CH58 in the presence of A32, against CH58 alone [7] greater than 40%. It also gave a % increase in the frequency of cells recognized by CH58 in the presence of CH57, against CH58 alone [7] greater than 40%, a % increase in the frequency of cells recognized by CH58 in the presence of CH90, against CH58 alone [7] greater than 40% and a pKd [1] of 9.00. It also gave a koff [1] of 0.00023 s⁻¹, a kon [1] of 226000 M⁻¹ s⁻¹ and a % increase in frequency of infected cells recognized by CH58 and in MFI in the presence of A32 [8] of less than 45%. It also gave a % increase of CH58 binding in the presence of CH54 [8] greater than 20%, a % increase of CH58 binding in the presence of CH57 [8] greater than 25% and a % increase of CH58 binding in the presence of CH90 [8] greater than 35%. It also gave a % Max Killing, mAb alone (Luciferase ADCC) [2] of 18.8%, an ADCC EC (3 hr Luciferase ADCC) [2] of 9.68 µg/mL and an EC, mAb alone (Luciferase ADCC) [2] of 9.13 µg/mL. The PC75, mAb alone (Luciferase ADCC) [2] was 31.4 µg/mL, the % increase in binding with gp120 pre-incubated with CH54, against gp120 with murine 16H3 mAb [9] was 14% and the % increase in binding with gp120 pre-incubated with CH57, against gp120 with murine 16H3 mAb [9] was 59%. The % increase in binding with gp120 pre-incubated with CH90, against gp120 with murine 16H3 mAb [9] was 12%.
In the case of VRC-CH31 (antibody), the % blocking of b12 binding [3] was 70%, the % blocking of sCD4 binding [4] was 97% and the % blocking of sCD4 binding [10] was 67%.

Source: patent US20150239961A1
